We go through 3 molecules from publication PMC6183340 (2018).

Assay [1] deals with T1, WT1 (modified WT1 235 peptide, mWT1 235) peptide on HLA-A*24:02 (human).
T1 peptide: CYTWNQMNL
Description: NFAT-GFP reporter; TCR-transduced 2D3 cells, T2-2402 and titrated mWT1 235 peptide; full-length, on cells.

For assay [2], the target named is T2, WT1 (natural WT1 235 peptide, nWT1 235) peptide on HLA-A*24:02 (human).
T2 peptide: CMTWNQMNL
As to the kind of experiment: NFAT-GFP reporter; TCR-transduced 2D3 cells, T2-2402 and titrated nWT1 235 peptide; full-length, on cells.

B1: TM-H2-TCR (TCR)
alpha TRAV20*02 TRAJ52*01 CDR3: CAVRGGRAGGTSYGKLTF
beta TRBV9*01 TRBJ2-3*01 CDR3: CASSVFGSSTDTQYF
With B1, the EC50 of peptide is 29.3 nM in assay [1] and 180 nM in assay [2].

B2: TM-L1-TCR (TCR)
alpha TRAV17*01 TRAJ43*01 CDR3: CATDPGYNNDMRF
beta TRBV20-1*01 TRBJ2-2*01 CDR3: CSARGQRELSGELFF
B2: in assay [1], the EC50 of peptide was determined as 1780 nM.

B3: FSK1-TCR (TCR)
alpha TRAV19*01 TRAJ26*01 CDR3: CALSAAYGQNFVF
beta TRBV6-5*01 TRBJ2-1*01 CDR3: CASSYGKGLYNEQFF
In the case of B3, the EC50 of peptide in assay [1] is 976 nM.
